Laboratory results: paper PMC9368931, “Involvement of a Cluster of Basic Amino Acids in Phosphorylation-Dependent Functional Repression of the Ceramide Transport Protein CERT” (International Journal of Molecular Sciences, 2022)
Where “and” joins values, the source holds several entries; their conditions need not be identical. Equal entries are not always repeated.

Experiments:
[1] = target: the molecule itself; experiment: native gel or EMSA; blue native PAGE of purified CERT (10 ng), 1% digitonin, 0.25% CBB G-250, 4-16% Bis-Tris gel; anti-HA western blot
[2] = target: the molecule itself; experiment: cross-linking; purified CERT (10.8 ng in 30 μL of 50 mM HEPES-NaOH pH 7.4) with EGS (0.1-1.6 mM) on ice for 2 h; SDS-PAGE (6%) and anti-HA western blot

B1: Recombinant human CERT S132A purified from Sf21 cells (natural protein, UniProt Q9Y5P4-2 1-598, looked up)
chain: MSDNQSWNSSGSEEDPETESGPPVERCGVLSKWTNYIHGWQDRWVVLKNNALSYYKSEDETEYGCRGSICLSKAVITPHDFDECRFDISVNDSVWYLRAQDPDHRQQWIDAIEQHKTESGYGSESSLRRHGAMVSLVSGASGYSATSTSSFKKGHSLREKLAEMETFRDILCRQVDTLQKYFDACADAVSKDELQRDKVVEDDEDDFPTTRSDGDFLHSTNGNKEKLFPHVTPKGINGIDFKGEAITFKATTAGILATLSHCIELMVKREDSWQKRLDKETEKKRRTEEAYKNAMTELKKKSHFGGPDYEEGPNSLINEEEFFDAVEAALDRQDKIEEQSQSEKVRLHWPTSLPSGDAFSSVGTHRFVQKVEEMVQNHMTYSLQDVGGDANWQLVVEEGEMKVYRREVEENGIVLDPLKATHAVKGVTGHEVCNYFWNVDVRNDWETTIENFHVVETLADNAIIIYQTHKRVWPASQRDVLYLSVIRKIPALTENDPETWIVCNFSVDHDSAPLNNRCVRAKINVAMICQTLVSPPEGNQEISRDNILCKITYVANVNPGGWAPASVLRAVAKREYPKFLKRFTSYVQEKTAGKPILF
notes: Ceramide transport protein CERT (GPBPΔ26), human, printed length 598 amino acids; The template plasmid is named pBS/nHAcFL-CERT, which may mean a further C-terminal FLAG tag; Mainly a homo-trimer by cross-linking and blue native PAGE; not shown: HA, N-terminal, kept
stoichiometry N [1]: 3

B2: Recombinant human CERT S132A/13A purified from Sf21 cells (natural protein, UniProt Q9Y5P4-2 1-598, looked up)
chain: MSDNQSWNSSGSEEDPETESGPPVERCGVLSKWTNYIHGWQDRWVVLKNNALSYYKSEDETEYGCRGSICLSKAVITPHDFDECRFDISVNDSVWYLRAQDPDHRQQWIDAIEQHKTESGYGSESSLRRHGAMVSLVSGASGYSATSTSSFKKGHSLREKLAEMETFRDILCRQVDTLQKYFDACADAVSKDELQRDKVVEDDEDDFPTTRSDGDFLHSTNGNKEKLFPHVTPKGINGIDFKGEAITFKATTAGILATLSHCIELMVAAEDSWQAALDAETEAAAATEEAYANAMTELAAASHFGGPDYEEGPNSLINEEEFFDAVEAALDRQDKIEEQSQSEKVRLHWPTSLPSGDAFSSVGTHRFVQKVEEMVQNHMTYSLQDVGGDANWQLVVEEGEMKVYRREVEENGIVLDPLKATHAVKGVTGHEVCNYFWNVDVRNDWETTIENFHVVETLADNAIIIYQTHKRVWPASQRDVLYLSVIRKIPALTENDPETWIVCNFSVDHDSAPLNNRCVRAKINVAMICQTLVSPPEGNQEISRDNILCKITYVANVNPGGWAPASVLRAVAKREYPKFLKRFTSYVQEKTAGKPILF
notes: Ceramide transport protein CERT (GPBPΔ26), human, printed length 598 amino acids; The template plasmid is named pBS/nHAcFL-CERT, which may mean a further C-terminal FLAG tag; also called S132/13A; not shown: HA, N-terminal, kept
stoichiometry N [2]: 2 and 3
